Measurements from patent publication US5726243.

How the values were obtained:
[1] = molecular target: K1735 M4 tumor cells (melanoma cells); experiment: adhesion of 3H-thymidine-labelled K1735 M4 cells to peptide-coated Immulon plates, 1 h at 37 °C
[2] = molecular target: K1735 M4 tumor cells (melanoma cells); experiment: adhesion of 3H-thymidine-labelled K1735 M4 cells to peptide-coated Immulon plates, 1 h at 37 °C; one mole of SSP counted as three chains

| peptide concentration at half maximal melanoma cell adhesion [1] | peptide concentration at half maximal melanoma cell adhesion [2] | Molecule |
| --- | --- | --- |
| 1.12 µM |  | THP-2, branched triple-helical polypeptide incorporating residues 1263-1277 from α1(IV) collagen |
| > 100 µM |  | THP-3, branched triple-helical polypeptide of (Gly-Pro-Hyp)8 |
|  | 170 µM | GVKGDKGNPGWPGAP [single-stranded peptide (SSP) incorporating residues 1263-1277 from the α1 chain of type IV collagen] |
